This note sets out measurements from the Immune Epitope Database (IEDB).

Where only a bound is given, the exact number is not on record here.

Some targets named below: HLA-A*31:01; HLA-A*68:01; HLA-A*03:01; HLA-A*33:01; HLA-A*11:01.
Holding throughout (test): IEDB peptide-MHC binding, purified MHC/competitive/radioactivity; filed as Kd, often an IC50 or EC50 that approximates it; ≥ and ≤ were set here for values at or beyond the usual limits of such assays
[1] abbreviates: source organism: Vaccinia virus WR.
Where [2] appears, read: source organism: Dengue virus 3 Martinique/1243/1999.
Where [3] appears, read: source organism: Lymphocytic choriomeningitis virus (strain Armstrong).
Setting [4] is: source organism: Mammarenavirus machupoense.
Where [5] appears, read: source organism: Dengue virus 2 Jamaica/1409/1983.
Where [6] appears, read: source organism: Dengue virus 2 Peru/IQT2913/1996.
Setting [7] is: source organism: Dengue virus 1 Brazil/97-11/1997.
The mark [8] stands for this setting: source organism: Mammarenavirus juninense.
Where [9] appears, read: source organism: Dengue virus 4 Philippines/H241/1956.
The mark [10] stands for this setting: source organism: Dengue virus 4 Dominica/814669/1981.
The mark [11] stands for this setting: source organism: Mammarenavirus brazilense.
[12] abbreviates: source organism: SARS coronavirus Tor2.

On to IFVSLVKKNK, for which the Kd in the test with HLA-A*31:01 (setting [1]) came to 69.1 nM; with HLA-A*68:01 (setting [1]), 56.3 nM; in the test with HLA-A*03:01 (setting [1]) it was 365 nM; with HLA-A*33:01 (setting [1]), 55 nM; with HLA-A*11:01 (setting [1]), 1860 nM.
In the case of QLLRLMADK, the Kd in the test with HLA-A*31:01 (setting [1]) is 2570 nM; with HLA-A*68:01 (setting [1]) it was no less than 21900 nM; with HLA-A*03:01 (setting [1]), 61.9 nM; with HLA-A*33:01 (setting [1]), no less than 46200 nM; with HLA-A*11:01 (setting [1]), 349 nM.
GVLARWGTFK: the results for the Kd with HLA-A*03:01 (setting [2]) and in the test with HLA-A*11:01 (setting [2]) were 5.23 nM and 74.4 nM, respectively.
Take RCHDHYLCRH: the Kd in the test with HLA-A*31:01 (setting [3]) is 14400 nM; in the test with HLA-A*68:01 (setting [3]) it was no less than 70100 nM; with HLA-A*03:01 (setting [3]), no less than 46800 nM; in the test with HLA-A*33:01 (setting [3]), no less than 70000 nM; with HLA-A*11:01 (setting [3]), no less than 69700 nM.
In the case of VMNFIPIIY, the Kd was no less than 20900 nM with HLA-A*31:01 (setting [1]); 8850 nM with HLA-A*68:01 (setting [1]); 58.7 nM in the test with HLA-A*03:01 (setting [1]); no less than 77700 nM with HLA-A*33:01 (setting [1]); 60.5 nM with HLA-A*11:01 (setting [1]).
Turning to TAVAKCNQNH, the Kd in the test with HLA-A*31:01 (setting [4]) was no less than 70000 nM; with HLA-A*68:01 (setting [4]), no less than 70100 nM; with HLA-A*03:01 (setting [4]) it was no less than 70000 nM; in the test with HLA-A*33:01 (setting [4]), no less than 68800 nM; with HLA-A*11:01 (setting [4]) it was no less than 69700 nM.
With TAKVIKLVK, the Kd is 19900 nM in the test with HLA-A*31:01 (setting [1]); 4910 nM with HLA-A*68:01 (setting [1]); no less than 52300 nM with HLA-A*03:01 (setting [1]); no less than 77700 nM in the test with HLA-A*33:01 (setting [1]); 985 nM with HLA-A*11:01 (setting [1]).
For NVFKAMETFK the same measures were 63 nM, 1.32 nM, 27.2 nM, 234 nM and 13.7 nM.
As for LTYQNKVVR, the Kd with HLA-A*31:01 (setting [5]) amounted to 11.3 nM; in the test with HLA-A*68:01 (setting [5]), 46.1 nM.
In the case of KSINKVYGR, the Kd with HLA-A*31:01 (setting [1]) came out at 1.04 nM; in the test with HLA-A*68:01 (setting [1]), 15.4 nM; with HLA-A*03:01 (setting [1]), 368 nM; in the test with HLA-A*33:01 (setting [1]) it was 3410 nM; with HLA-A*11:01 (setting [1]), 2.38 nM.
Consider TVMAFHLTTR, for which the Kd was determined as 1.57 nM with HLA-A*31:01 (setting [6]), 12.2 nM with HLA-A*68:01 (setting [6]), 8.12 nM with HLA-A*33:01 (setting [6]) and 108 nM with HLA-A*11:01 (setting [6]).
As for EMGANFRADR, the Kd with HLA-A*31:01 (setting [7]) is no less than 70000 nM.
Regarding CSKHMDARY, the Kd with HLA-A*31:01 (setting [1]) is no less than 45200 nM; with HLA-A*68:01 (setting [1]), 18700 nM; in the test with HLA-A*03:01 (setting [1]), 19100 nM; with HLA-A*33:01 (setting [1]), no less than 77700 nM; with HLA-A*11:01 (setting [1]), 10100 nM.
As for STIANSNIIK, the Kd with HLA-A*31:01 (setting [1]) turned out to be 1130 nM; with HLA-A*68:01 (setting [1]), 16.1 nM; in the test with HLA-A*03:01 (setting [1]), 251 nM; in the test with HLA-A*33:01 (setting [1]) it was 19500 nM; with HLA-A*11:01 (setting [1]) it was 0.545 nM.
Regarding QMWTLMYFHR, the Kd with HLA-A*31:01 (setting [5]) worked out at 1.86 nM; with HLA-A*33:01 (setting [5]), 35.3 nM.
As for YFWQKKKQR, the Kd turned out to be 2220 nM with HLA-A*31:01 (setting [7]) and 98.2 nM with HLA-A*33:01 (setting [7]).
Regarding NKKPRLCTR, in the test with HLA-A*33:01 (setting [2]), the Kd turned out to be 3910 nM.
Turning to GFKNGSRHSH, the Kd was 882 nM in the test with HLA-A*31:01 (setting [8]), 2960 nM with HLA-A*68:01 (setting [8]), 14400 nM with HLA-A*03:01 (setting [8]) and no less than 42700 nM in the test with HLA-A*11:01 (setting [8]).
Take GSLITCAKFK: in the test with HLA-A*11:01 (source organism: Dengue virus 1 Nauru/West Pac/1974), the Kd came out at 244 nM.
With TMPLVMAWR, the Kd in the test with HLA-A*31:01 (setting [9]) is 8.48 nM; with HLA-A*33:01 (setting [9]), 6.43 nM.
Regarding SLRETACLGK, in the test with HLA-A*03:01 (setting [7]), the Kd was found to be 8.06 nM.
FFLMVLLIPE: the Kd with HLA-A*33:01 (setting [7]) is 208 nM.
As to MSTYGWNIVK, in the test with HLA-A*68:01 (setting [2]), the Kd turned out to be 6.17 nM.
Consider LTVCYVLTGR, for which the Kd in the test with HLA-A*68:01 (setting [5]) was 6.43 nM.
Regarding MTLMKGASR, the figures for the Kd with HLA-A*31:01 (setting [10]), with HLA-A*68:01 (setting [10]) and in the test with HLA-A*33:01 (setting [10]) were 30.5 nM, 52.3 nM and 11.6 nM, respectively.
As to RNKKPRLCTR, the Kd with HLA-A*31:01 (setting [2]) came out at 92.6 nM.
As to AAQRRGRIGR, in the test with HLA-A*31:01 (setting [9]), the Kd worked out at 2.16 nM.
For HYDQENPYR, in the test with HLA-A*33:01 (setting [9]), the Kd stood at 7870 nM.
With HLKCRLRMDK, the dissociation constant Kd with HLA-A*03:01 (setting [5]) was found to be 119 nM.
On to VLAFITFLR, for which the Kd stood at 4.41 nM with HLA-A*31:01 (setting [9]), 8.39 nM with HLA-A*68:01 (setting [9]), 267 nM with HLA-A*03:01 (setting [9]) and 70.4 nM with HLA-A*33:01 (setting [9]).
Consider NTNLIKCSDH, for which the Kd in the test with HLA-A*31:01 (setting [11]) is no less than 37500 nM; in the test with HLA-A*33:01 (setting [11]) it was no less than 60300 nM.
For the sequence DVISRRDQR, the Kd was determined as 66.3 nM in the test with HLA-A*68:01 (setting [7]) and 68.2 nM in the test with HLA-A*33:01 (setting [7]).
Consider RVYADPMALK, for which the Kd was found to be 16.1 nM with HLA-A*68:01 (setting [9]), 6.98 nM with HLA-A*03:01 (setting [9]) and 90.3 nM with HLA-A*11:01 (setting [9]).
Take QVYFESFVR: in the test with HLA-A*11:01 (setting [3]), the dissociation constant (Kd) turned out to be 54.8 nM.
ATVVIGTSK: the Kd with HLA-A*31:01 (setting [12]) is 1320 nM; in the test with HLA-A*68:01 (setting [12]), 101 nM; with HLA-A*33:01 (setting [12]), no less than 77700 nM.
On to ENKAWLVHR, for which the Kd in the test with HLA-A*33:01 (source organism: Dengue virus 2 16681-PDK53) is 7 nM.
Consider RVPSHLAHR, for which the Kd in the test with HLA-A*31:01 (setting [2]) was 0.845 nM.
Consider KNKAWMVHR, for which the Kd in the test with HLA-A*31:01 (setting [2]) was 1.18 nM.
As for CTSQILLMR, in the test with HLA-A*68:01 (setting [7]), the Kd stood at 16.7 nM.
As to FVCRRTFVDR, the Kd with HLA-A*31:01 (setting [7]) is no less than 70000 nM; in the test with HLA-A*33:01 (setting [7]) it was 65.2 nM.
Take FTDPASIAAR: the Kd in the test with HLA-A*68:01 (setting [5]) was 25.6 nM; with HLA-A*33:01 (setting [5]), 125 nM.
Turning to KIFSEVTPK, the Kd with HLA-A*03:01 (source organism: Homo sapiens) came out at 10 nM.
With KATLTEGVYR, in the test with HLA-A*31:01 (setting [9]), the Kd came out at 76 nM.
